We go through 2 molecules from patent US20170052184A1 (published 2017).

Assay [1] deals with T1, C113WT biotin labeled HCV core peptide (Hepatitis C virus, also: biotin label, position not given here).
T1 peptide: RGSRPSWGPTD
Nature of the assay: EIA, captured mAb + biotin peptide.

In assay [2] the target is T2, C113T110N biotin labeled HCV core peptide (Hepatitis C virus, also: biotin label, position not given here).
T2 peptide: RGSRPSWGPND
As to the kind of experiment: EIA, captured mAb + biotin peptide.

Assay [3] concerns the target T3, HCV Core1-169 recombinant antigen (hepatitis C virus (HCV-1), UniProt P26664 1-169).
T3 sequence: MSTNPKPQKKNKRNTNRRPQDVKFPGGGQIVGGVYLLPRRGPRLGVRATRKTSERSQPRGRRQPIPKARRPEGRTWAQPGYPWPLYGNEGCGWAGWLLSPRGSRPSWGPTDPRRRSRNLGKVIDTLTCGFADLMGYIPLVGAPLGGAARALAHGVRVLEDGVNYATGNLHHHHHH
As to the kind of experiment: sandwich EIA, 25 ng/ml core1-169; capture mAb C11-7.

For assay [4], the target named is T3, HCV Core1-169 recombinant antigen. As to the kind of experiment: sandwich EIA, 25 ng/ml core1-169; capture mAb C11-9.
Assay [5] shares this target. Nature of the assay: sandwich EIA, 25 ng/ml core1-169; capture mAb 208A-110.
For assay [6] the target is unchanged. As to the kind of experiment: sandwich EIA, 25 ng/ml core1-169; capture mAb 208A-293.
For assay [7] the target is unchanged. As to the kind of experiment: sandwich EIA, 25 ng/ml core1-169; capture mAb 208A-557.
Assay [8] has the same target. As to the kind of experiment: sandwich EIA, 25 ng/ml core1-169; capture mAb 208A-692.
Assay [9] shares this target. As to the kind of experiment: sandwich EIA, 25 ng/ml core1-169; capture mAb 208B-741.
Assay [10] has the same target. Nature of the assay: sandwich EIA, 25 ng/ml core1-169; capture mAb 208B-1096.
For assay [11] the target is unchanged. As to the kind of experiment: sandwich EIA, 25 ng/ml core1-169; capture NC capture mAb.
Assay [12] shares this target. As to the kind of experiment: sandwich EIA, 25 ng/ml core1-169; capture mAb 208A-207-271.
Assay [13] has the same target. Nature of the assay: sandwich EIA, 25 ng/ml core1-169; capture mAb 208B-395-334.
For assay [14] the target is unchanged. As to the kind of experiment: sandwich EIA, 25 ng/ml core1-169; capture mAb 208B-612-226.

Ends that are not written are not given here.

B1: Neo4 monoclonal antibody (antibody, V domains shown)
VH: QIQLKESGPAVIKPSQSLSLTCIVSGFSITSSVYCWQWIRQPPGKGLEWMGRICYDGSVDYSPSITSRGTISRDTSLNKVFFQLSSVTNEDTAMYYCSRENHIDYYDTTYPSFDVWGAGTTVTVSS
VL: DIVLTQSPASLIVSLGQRATISCRASKSVNEYGYTYMHWYQQKPGLPPKLLIYLASNLDSGVPARFSGSGSGTDFTLNIHPVEEEDAATYYCQHSRELPYTFGGGTKLEIKR
notes: also called HCV Neo4
With B1, the binding result in assay [1] and in assay [2] was “no binding” throughout.

B2: 208B-612-226 monoclonal antibody (antibody, V domains shown)
VH: EVQLQQSGPELVKPGASVKMSCKASGYRFTSYVMHWVRQKPGQGLEWIGYIDPHNDDTKYSEKFRGKATLTSDKSSTTAYMELSSLTSEDSAVYYCVRYSYDRDYSPMDYWGQGTSVTVSS
VL: QIVLTQSPTLMSASPGEKVTMTCSASSTVTYIYWYQQKPGSSPRLWMYDTFNLVSGVPARFSGSRSGTSYFLTISSMEGEDAATYYCQQYSDSPYTFGGGTKLEIKR
For the molecule B2, the OD492 nm in assay [3] stood at 1.52 OD492; in assay [4], 0.64 OD492; in [5], 0.26 OD492; in assay [6], 0.28 OD492; in [7] it was 0.23 OD492; in [8] it was 0.18 OD492. The OD492 nm in assay [9] amounted to 0.23 OD492; in assay [10] it was 0.7 OD492; in [11], 0.21 OD492; in assay [12] it was 0.24 OD492; in [13], 0.83 OD492; in [14], 0.23 OD492.
